Measured values as given in patent US20230243822A1, “MOLECULAR DISEASE PROFILE AND USE THEREOF FOR MONITORING AND TREATING RHEUMATAOID ARTHRITIS” (JANSSEN BIOTECH, INC., priority 2020, published 2023).

Experiments:
14-analyte M-DP panel = experiment: Pharmacodynamic M-DP score, 14-analyte panel (SomaLogic SOMAscan), clinical studies in RA; type: in vivo, human; conditions: for M-DP score mean difference ± SD, Good vs. No / M-DP score mean ± SD, DAS28-CRP response group Good / M-DP score mean ± SD, DAS28-CRP response group Moderate / M-DP score mean ± SD, DAS28-CRP response group No: response at week 24
From the text: Serum samples and data from eight interventional clinical studies with seven different active treatments for RA or placebo treatment were obtained and analyzed: sirukumab (anti-IL-6) and placebo treatments in SIRROUND-M (NCT01689532; Takeuchi T, et al. Arthritis Res Ther. 2018 Mar. 7; 20(1): 42), SIRROUND-D (NCT01604343; Takeuchi T, et al. Ann Rheum Dis. 2017 Dec.; 76(12): 2001-2008), and SIRROUND-T (NCT01606761; Aletaha D, et al. Lancet. 2017 Mar. 25; 389(10075): 1206-1217); sirukumab and adalimumab (anti-TNF-alpha) treatments in SIRROUND-H (NCT02019472; Taylor PC, et al. Ann Rheum Dis. 2018 May; 77(5): 658-666); golimumab (anti-TNF-alpha) treatment in GO-FURTHER (NCT00973479; Weinblatt ME, et al. Ann Rheum Dis. 2013 March; 72(3): 381-9); guselkumab (anti-IL-23p19), ustekinumab (anti-IL-12/IL-23p40), and placebo treatments in CNTO1275ARA2001 (NCT01645280; Cox JD, et al. […]); JNJ-40346527 (colony-stimulating factor-1 inhibitor) and placebo treatments in 40346527ARA2001 (NCT01597739; Genovese MC, et al. J Rheumatol. 2015 October; 42(10): 1752-60). Plasma samples were obtained from the RA-MAP TACERA study (Cope AP, et al. Nat Rev Rheumatol. 2018 January; 14(1): 53-60) before (baseline) and 6-months after initiation of conventional synthetic disease-modifying anti-rheumatic drugs (csDMARDs). Details of treatment dose groups, concomitant methotrexate use, and previous experience with csDMARDs and biologics are reported in Table 1. The studies were conducted in accordance with the Declaration of Helsinki. The study protocols were reviewed and approved by an independent ethics committee or institutional review board for each study center. Written informed consent was obtained from all patients before study entry. Additional study details and patient characteristics are available in the referenced publications for each study. For SIRROUND-D and SIRROUND-T studies, sets of serum samples from demographically-matched healthy controls were obtained from commercial sources (BioIVT, Westbury, N.Y.).
Serum samples from baseline (week 0) and the time points indicated in Table 1 were provided for quantification of 1189 serum analytes using the SomaScan v3.1 platform (SomaLogic, Boulder, Colo.; www.somalogic.com), with the exception of RA-MAP TACERA, for which plasma samples were analyzed for 1301 analytes using the SomaScan v3.2 platform. For some studies, a redacted dataset reporting data for a subset of the analytes was obtained. Relative fluorescence unit (RFU) data were sequentially normalized for hybridization controls (internal standards per samples), median signal across all samples (assumes same total protein concentration across sample set), and calibration controls (common sample standards across analysis plates). Samples failed quality control standards defined by Somalogic were excluded from analyses. The normalized RFU values were log2-transformed for subsequent analyses.
Changes in analyte expression levels were calculated for individual samples as the log2 transform of the ratio of the analyte level at the indicated time point (visit level) over the analyte level at baseline (baseline level) for a given subject, i.e., log 2(visit level/baseline level). Changes in RA disease-associated analytes per sample were summarized using a pharmacodynamic (PD) molecular disease profile (M-DP) score, defined as the median value of the log 2(visit level/baseline level) values for analytes in the defined M-DP analyte set. […] PD M-DP scores in the log 2(visit level/baseline level) scale can be transformed to percent change from baseline, using the transformation: (2^M-DP score−1)×100%.
Statistical analyses were performed on log2-transformed data, for either normalized Relative fluorescence unit (RFU) datasets or within-subject fold/baseline datasets. Significance of differences between groups was evaluated using General Linear Models, with t-tests when comparing two groups. […]

RA patients = conditions: RA patients; cited from earlier work
[1] = SIRROUND-D, score at week 4, sirukumab SC 50 mg q4w
[2] = SIRROUND-D, score at week 4, sirukumab SC 100 mg q2w
[3] = SIRROUND-D, score at week 24, sirukumab SC 50 mg q4w
[4] = SIRROUND-D, score at week 24, sirukumab SC 100 mg q2w
[5] = SIRROUND-H, score at week 4, sirukumab SC 50 mg q4w or adalimumab SC 40 mg q2w
[6] = SIRROUND-M, score at week 4, sirukumab SC 50 mg q4w
[7] = SIRROUND-M, score at week 4, sirukumab SC 100 mg q2w
[8] = SIRROUND-T, score at week 4, sirukumab SC 50 mg q4w
[9] = SIRROUND-T, score at week 4, sirukumab SC 100 mg q2w
[10] = SIRROUND-T, score at week 24, sirukumab SC 50 mg q4w
[11] = SIRROUND-T, score at week 24, sirukumab SC 100 mg q2w

B1: Sirukumab (antibody, chains of the INN, looked up, V domains shown)
VH: EVQLVESGGGLVQPGGSLRLSCAASGFTFSPFAMSWVRQAPGKGLEWVAKISPGGSWTYYSDTVTGRFTISRDNAKNSLYLQMNSLRAEDTAVYYCARQLWGYYALDIWGQGTTVTVSS
VL: EIVLTQSPATLSLSPGERATLSCSASISVSYMYWYQQKPGQAPRLLIYDMSNLASGIPARFSGSGSGTDFTLTISSLEPEDFAVYYCMQWSGYPYTFGGGTKVEIK
notes: a human anti-interleukin-6 (IL-6) monoclonal antibody
M-DP score mean ± SD, All treated (14-analyte M-DP panel; [1]): −0.42 ± 0.34 log2 (fold/baseline)
M-DP score mean ± SD, All treated (14-analyte M-DP panel; SIRROUND-D, score at week 4, sirukumab SC 50 mg q4w, listed as sirukumab): -0.42±0.34 log2 (fold/baseline)
M-DP score mean difference ± SD, Good vs. No (14-analyte M-DP panel; [1]): −0.08 ± 0.33 log2 (fold/baseline)
M-DP score mean ± SD, DAS28-CRP response group Good (14-analyte M-DP panel; [1]): −0.44 ± 0.32 log2 (fold/baseline)
M-DP score mean ± SD, DAS28-CRP response group Moderate (14-analyte M-DP panel; [1]): −0.43 ± 0.36 log2 (fold/baseline)
M-DP score mean ± SD, DAS28-CRP response group No (14-analyte M-DP panel; [1]): −0.36 ± 0.35 [44]+ log2 (fold/baseline)
M-DP score mean ± SD, All treated (14-analyte M-DP panel; [2]): −0.48 ± 0.30 log2 (fold/baseline)
M-DP score mean ± SD, All treated (14-analyte M-DP panel; SIRROUND-D, score at week 4, sirukumab SC 100 mg q2w, listed as sirukumab): -0.48±0.30 log2 (fold/baseline)
M-DP score mean difference ± SD, Good vs. No (14-analyte M-DP panel; [2]): −0.27 ± 0.30 log2 (fold/baseline)
M-DP score mean ± SD, DAS28-CRP response group Good (14-analyte M-DP panel; [2]): −0.50 ± 0.29 log2 (fold/baseline)
M-DP score mean ± SD, DAS28-CRP response group Moderate (14-analyte M-DP panel; [2]): −0.51 ± 0.30 log2 (fold/baseline)
M-DP score mean ± SD, DAS28-CRP response group No (14-analyte M-DP panel; [2]): −0.33 ± 0.32 [28]+ log2 (fold/baseline)
M-DP score mean ± SD, All treated (14-analyte M-DP panel; [3]): −0.61 ± 0.40 log2 (fold/baseline)
M-DP score mean ± SD, DAS28-CRP response group Good (14-analyte M-DP panel; [3]): −0.65 ± 0.39 log2 (fold/baseline)
M-DP score mean ± SD, DAS28-CRP response group Moderate (14-analyte M-DP panel; [3]): −0.59 ± 0.39 log2 (fold/baseline)
M-DP score mean ± SD, DAS28-CRP response group No (14-analyte M-DP panel; [3]): 0.06 ± 0.00 [1] log2 (fold/baseline)
M-DP score mean ± SD, All treated (14-analyte M-DP panel; [4]): −0.69 ± 0.31 log2 (fold/baseline)
M-DP score mean ± SD, DAS28-CRP response group Good (14-analyte M-DP panel; [4]): −0.69 ± 0.34 log2 (fold/baseline)
M-DP score mean ± SD, DAS28-CRP response group Moderate (14-analyte M-DP panel; [4]): −0.75 ± 0.20 log2 (fold/baseline)
M-DP score mean ± SD, DAS28-CRP response group No (14-analyte M-DP panel; [4]): −0.52 ± 0.37 [2] log2 (fold/baseline)
M-DP score GMean decrease from baseline (14-analyte M-DP panel; SIRROUND-D, week 4, sirukumab 50 mg q4w): 21%
M-DP score GMean decrease from baseline (14-analyte M-DP panel; SIRROUND-D, week 4, sirukumab 100 mg q2w): 25%
M-DP score mean ± SD, All treated (14-analyte M-DP panel; [5]): −0.41 ± 0.30 log2 (fold/baseline)
M-DP score mean difference ± SD, Good vs. No (14-analyte M-DP panel; [5]): −0.07 ± 0.30 log2 (fold/baseline)
M-DP score mean ± SD, DAS28-CRP response group Good (14-analyte M-DP panel; [5]): −0.45 ± 0.33 log2 (fold/baseline)
M-DP score mean ± SD, DAS28-CRP response group Moderate (14-analyte M-DP panel; [5]): −0.40 ± 0.30 log2 (fold/baseline)
M-DP score mean ± SD, DAS28-CRP response group No (14-analyte M-DP panel; [5]): −0.38 ± 0.22 [12]+ log2 (fold/baseline)
M-DP score mean ± SD, All treated (14-analyte M-DP panel; [6]): −0.51 ± 0.37 log2 (fold/baseline)
M-DP score mean difference ± SD, Good vs. No (14-analyte M-DP panel; [6]): −0.40 ± 0.37 log2 (fold/baseline)
M-DP score mean ± SD, DAS28-CRP response group Good (14-analyte M-DP panel; [6]): −0.59 ± 0.38 log2 (fold/baseline)
M-DP score mean ± SD, DAS28-CRP response group Moderate (14-analyte M-DP panel; [6]): −0.46 ± 0.30 log2 (fold/baseline)
M-DP score mean ± SD, DAS28-CRP response group No (14-analyte M-DP panel; [6]): −0.19 ± 0.25 [7] log2 (fold/baseline)
M-DP score mean ± SD, All treated (14-analyte M-DP panel; [7]): −0.59 ± 0.29 log2 (fold/baseline)
M-DP score mean ± SD, DAS28-CRP response group Good (14-analyte M-DP panel; [7]): −0.55 ± 0.27 log2 (fold/baseline)
M-DP score mean ± SD, DAS28-CRP response group Moderate (14-analyte M-DP panel; [7]): −0.70 ± 0.34 log2 (fold/baseline)
M-DP score mean ± SD, DAS28-CRP response group No (14-analyte M-DP panel; [7]): −0.51 ± 0.10 [2] log2 (fold/baseline)
M-DP score mean ± SD, All treated (14-analyte M-DP panel; [8]): −0.34 ± 0.28 log2 (fold/baseline)
M-DP score mean difference ± SD, Good vs. No (14-analyte M-DP panel; [8]): −0.06 ± 0.29 log2 (fold/baseline)
M-DP score mean ± SD, DAS28-CRP response group Good (14-analyte M-DP panel; [8]): −0.35 ± 0.30 log2 (fold/baseline)
M-DP score mean ± SD, DAS28-CRP response group Moderate (14-analyte M-DP panel; [8]): −0.37 ± 0.26 log2 (fold/baseline)
M-DP score mean ± SD, DAS28-CRP response group No (14-analyte M-DP panel; [8]): −0.29 ± 0.26 [30]+ log2 (fold/baseline)
M-DP score mean ± SD, All treated (14-analyte M-DP panel; [9]): −0.49 ± 0.35 log2 (fold/baseline)
M-DP score mean difference ± SD, Good vs. No (14-analyte M-DP panel; [9]): −0.20 ± 0.34 log2 (fold/baseline)
M-DP score mean ± SD, DAS28-CRP response group Good (14-analyte M-DP panel; [9]): −0.55 ± 0.35 log2 (fold/baseline)
M-DP score mean ± SD, DAS28-CRP response group Moderate (14-analyte M-DP panel; [9]): −0.54 ± 0.35 log2 (fold/baseline)
M-DP score mean ± SD, DAS28-CRP response group No (14-analyte M-DP panel; [9]): −0.35 ± 0.33 [39]+ log2 (fold/baseline)
M-DP score mean ± SD, All treated (14-analyte M-DP panel; [10]): −0.41 ± 0.33 log2 (fold/baseline)
M-DP score mean difference ± SD, Good vs. No (14-analyte M-DP panel; [10]): −0.12 ± 0.34 log2 (fold/baseline)
M-DP score mean ± SD, DAS28-CRP response group Good (14-analyte M-DP panel; [10]): −0.46 ± 0.35 log2 (fold/baseline)
M-DP score mean ± SD, DAS28-CRP response group Moderate (14-analyte M-DP panel; [10]): −0.41 ± 0.29 log2 (fold/baseline)
M-DP score mean ± SD, DAS28-CRP response group No (14-analyte M-DP panel; [10]): −0.34 ± 0.31 [31]+ log2 (fold/baseline)
M-DP score mean ± SD, All treated (14-analyte M-DP panel; [11]): −0.53 ± 0.36 log2 (fold/baseline)
M-DP score mean difference ± SD, Good vs. No (14-analyte M-DP panel; [11]): −0.18 ± 0.35 log2 (fold/baseline)
M-DP score mean ± SD, DAS28-CRP response group Good (14-analyte M-DP panel; [11]): −0.59 ± 0.38 log2 (fold/baseline)
M-DP score mean ± SD, DAS28-CRP response group Moderate (14-analyte M-DP panel; [11]): −0.54 ± 0.37 log2 (fold/baseline)
M-DP score mean ± SD, DAS28-CRP response group No (14-analyte M-DP panel; [11]): −0.41 ± 0.28 [40]+ log2 (fold/baseline)
M-DP score GMean decrease from baseline (14-analyte M-DP panel; SIRROUND-T, week 4, sirukumab 50 mg q4w): 22%
M-DP score GMean decrease from baseline (14-analyte M-DP panel; SIRROUND-T, week 4, sirukumab 100 mg q2w): 29%
clinical efficacy in the underlying clinical studies (RA patients): clinically efficacious
